B1: mouse MD1 without its native signal sequence (residues Asp20-Ser162) (natural protein)
chain: DHGSENGWPKHTACNSGGLEVVYQSCDPLQDFGLSIDQCSKQIQSNLNIRFGIILRQDIRKLFLDITLMAKGSSILNYSYPLCEEDQPKFSFCGRRKGEQIYYAGPVNNPGLDVPQGEYQLLLELYNENRATVACANATVTSSAAA
modifications: differential N-glycosylation at Asn96 and Asn156

Legend:
[1] = target: solRP105-MD1 complex (mouse) (UniProt O88188); assay: SEC; Superdex 200 PC3.2/30; 50 mM Tris-Cl pH 8.0, 300 mM NaCl; 0.05 ml/min; purified solRP105 and purified solRP105-MD1 complex
[2] = target: solRP105-MD1 complex (mouse) (UniProt O88188); assay: SEC-MALS; WTC-030S5 column (Wyatt); 50 mM Tris-Cl pH 8.0, 300 mM NaCl; 0.5 ml/min; purified solRP105-MD1 complex
[3] = target: T1, soluble RP105 (extracellular domain of mouse RP105, residues Thr21-Ala630) (mouse); assay: as above
T1 sequence (Q62192 whole entry, looked up): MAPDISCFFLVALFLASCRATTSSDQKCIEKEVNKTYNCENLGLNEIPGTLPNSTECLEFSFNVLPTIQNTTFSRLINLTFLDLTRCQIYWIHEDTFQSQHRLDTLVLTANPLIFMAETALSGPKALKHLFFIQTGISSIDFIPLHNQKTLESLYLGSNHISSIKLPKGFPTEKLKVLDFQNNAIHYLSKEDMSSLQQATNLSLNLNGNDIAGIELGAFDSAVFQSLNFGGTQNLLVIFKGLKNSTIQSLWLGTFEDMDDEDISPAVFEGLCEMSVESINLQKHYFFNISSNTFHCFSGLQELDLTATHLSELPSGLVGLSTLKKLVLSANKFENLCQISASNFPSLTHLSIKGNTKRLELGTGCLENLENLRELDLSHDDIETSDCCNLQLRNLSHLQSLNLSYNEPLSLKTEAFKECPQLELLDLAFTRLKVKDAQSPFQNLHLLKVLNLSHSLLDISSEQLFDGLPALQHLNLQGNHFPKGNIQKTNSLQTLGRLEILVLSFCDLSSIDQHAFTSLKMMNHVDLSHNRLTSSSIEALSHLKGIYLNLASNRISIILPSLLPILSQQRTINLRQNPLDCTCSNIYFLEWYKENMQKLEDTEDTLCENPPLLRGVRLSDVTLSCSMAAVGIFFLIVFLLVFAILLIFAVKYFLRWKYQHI

Molecule | stoichiometry N (RP105-MD1 units per complex) [1] | stoichiometry N (RP105-MD1 units per complex) [2] | stoichiometry N (MD1 per RP105 (2:2)) [3]
solRP105-MD1 complex (from UniProt O88188 20-162) | 2 | 2 | –
B1 | – | – | 1

— publication PMC3699456
